Here are results for four substances from patent US20120184488A1, “INSULIN ANALOGUES OF ENHANCED RECEPTOR-BINDING SPECIFICITY” (CASE WESTERN RESERVE UNIVERSITY, priority 2009, published 2012).

Experiment [1] deals with insulin receptor, isoform B (human) (UniProt P06213). The experiment is described as follows: competitive displacement, antibody-capture microtiter plate, IR isoform B.
Experiment [2] addresses Type I insulin-like growth factor receptor (UniProt P08069). In words: competitive displacement of 125I-IGF-1, antibody-capture microtiter plate, IGFR. In general terms: Loss of bound radioactivity is the signal in a displacement assay; it reports binding, not function.
Experiment [3] has as its target insulin receptor, isoform B (human) (UniProt P06213). The experiment is described as follows: competitive displacement of 125I-insulin, antibody-capture microtiter plate, IR isoform B.
Another experiment addresses IR (Homo sapiens, UniProt P06213). Particulars: relative to human insulin; cited from earlier work.

Ala^A4-His^A8-DKP-insulin (ligand), sequence (chain): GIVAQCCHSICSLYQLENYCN
Ala^A4-His^A8-DKP-insulin (ligand), sequence (chain): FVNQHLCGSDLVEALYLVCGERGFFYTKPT
His^A4-His^A8-His^B1-insulin (ligand), sequence (chain): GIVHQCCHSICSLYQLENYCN
His^A4-His^A8-His^B1-insulin (ligand), sequence (chain): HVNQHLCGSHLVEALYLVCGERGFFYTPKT

In experiment [1], Ala^A4-His^A8-DKP-insulin (ligand) gave a relative affinity for IR (percent of human insulin) of 384%.

With Dab^A8-insulin (ligand), the relative affinity for IGFR (percent of IGF-I) in experiment [2] stood at 0.13%. The same substance yielded a relative affinity for IR (percent of human insulin) in experiment [3] of 91%.

In experiment [1], His^A4-His^A8-His^B1-insulin (ligand) registered a relative affinity for IR (percent of human insulin) of 125%.

As to insulin Detemir®, the “affinity for IR / receptor binding” value at IR was “decreased affinity”.
